*1 amine or outer side, *2 acyl side, *3 side chain or, on linkers, in order; H or OH if unused. Bridges are numbered along the chain shown (N, C = ends). [ ]: non-standard residue; d: D form. The star is where a group is joined. C20 diacid = O=C(O)CCCCCCCCCCCCCCCCCCC(=O)*; γGlu = O=C(O)[C@H](CCC(=O)[*:2])N[*:1]; Hyp = O=C(O)[C@@H]1C[C@@H](O)CN1; NMeI = CC[C@H](C)[C@H](NC)C(=O)O; Aad = N[C@@H](CCCC(=O)O)C(=O)O; Orn = NCCC[C@H](N)C(=O)O; Sar = CNCC(=O)O
B1: [19CD]-isoGlu-R-C( )-QTAT-C( )-ATERLAHFLQRF-Gly(Me)-A-Ile(Me)-LSSTEVGSNTP-NH2 (Compd. 96) (peptide)
peptide: {C20 diacid-γGlu}-RCQTATCATERLAHFLQRF[Sar]A[NMeI]LSSTEVGSNTP-NH2
modifications: disulfide 2-7
SMILES: CC[C@H](C)[C@@H](C(=O)N[C@@H](CC(C)C)C(=O)N[C@@H](CO)C(=O)N[C@@H](CO)C(=O)N[C@H](C(=O)N[C@@H](CCC(=O)O)C(=O)N[C@H](C(=O)NCC(=O)N[C@@H](CO)C(=O)N[C@@H](CC(N)=O)C(=O)N[C@H](C(=O)N1CCC[C@H]1C(N)=O)[C@@H](C)O)C(C)C)[C@@H](C)O)N(C)C(=O)[C@H](C)NC(=O)CN(C)C(=O)[C@H](Cc1ccccc1)NC(=O)[C@H](CCCNC(=N)N)NC(=O)[C@H](CCC(N)=O)NC(=O)[C@H](CC(C)C)NC(=O)[C@H](Cc1ccccc1)NC(=O)[C@H](Cc1c[nH]cn1)NC(=O)[C@H](C)NC(=O)[C@H](CC(C)C)NC(=O)[C@H](CCCNC(=N)N)NC(=O)[C@H](CCC(=O)O)NC(=O)[C@@H](NC(=O)[C@H](C)NC(=O)[C@@H]1CSSC[C@H](NC(=O)[C@H](CCCNC(=N)N)NC(=O)CC[C@H](NC(=O)CCCCCCCCCCCCCCCCCCC(=O)O)C(=O)O)C(=O)N[C@@H](CCC(N)=O)C(=O)N[C@@H]([C@@H](C)O)C(=O)N[C@@H](C)C(=O)N[C@@H]([C@@H](C)O)C(=O)N1)[C@@H](C)O
B2: [19CD]-isoGlu-R-C( )-GTAT-C( )-ATERLAHFLTRSSF-Gly(Me)-A-Ile(Me)-LSSTEVGSGT-Hyp-NH2 (Compd. 13) (peptide)
peptide: {C20 diacid}-[γGlu]RCGTATCATERLAHFLTRSSF[Sar]A[NMeI]LSSTEVGSGT[Hyp]-NH2
modifications: disulfide 3-8
SMILES: CC[C@H](C)[C@@H](C(=O)N[C@@H](CC(C)C)C(=O)N[C@@H](CO)C(=O)N[C@@H](CO)C(=O)N[C@H](C(=O)N[C@@H](CCC(=O)O)C(=O)N[C@H](C(=O)NCC(=O)N[C@@H](CO)C(=O)NCC(=O)N[C@H](C(=O)N1C[C@H](O)C[C@H]1C(N)=O)[C@@H](C)O)C(C)C)[C@@H](C)O)N(C)C(=O)[C@H](C)NC(=O)CN(C)C(=O)[C@H](Cc1ccccc1)NC(=O)[C@H](CO)NC(=O)[C@H](CO)NC(=O)[C@H](CCCNC(=N)N)NC(=O)[C@@H](NC(=O)[C@H](CC(C)C)NC(=O)[C@H](Cc1ccccc1)NC(=O)[C@H](Cc1c[nH]cn1)NC(=O)[C@H](C)NC(=O)[C@H](CC(C)C)NC(=O)[C@H](CCCNC(=N)N)NC(=O)[C@H](CCC(=O)O)NC(=O)[C@@H](NC(=O)[C@H](C)NC(=O)[C@@H]1CSSC[C@H](NC(=O)[C@H](CCCNC(=N)N)NC(=O)CC[C@H](NC(=O)CCCCCCCCCCCCCCCCCCC(=O)O)C(=O)O)C(=O)NCC(=O)N[C@@H]([C@@H](C)O)C(=O)N[C@@H](C)C(=O)N[C@@H]([C@@H](C)O)C(=O)N1)[C@@H](C)O)[C@@H](C)O
B3: [19CD]-isoGlu-R-C( )-GTAT-C( )-ATERLAHFLTRSSF-Gly(Me)-A-Ile(Me)-LSSTEVGS-Orn-T-Hyp-NH2 (Compd. 11) (peptide)
peptide: {C20 diacid}-[γGlu]RCGTATCATERLAHFLTRSSF[Sar]A[NMeI]LSSTEVGS[Orn]T[Hyp]-NH2
modifications: disulfide 3-8
SMILES: CC[C@H](C)[C@@H](C(=O)N[C@@H](CC(C)C)C(=O)N[C@@H](CO)C(=O)N[C@@H](CO)C(=O)N[C@H](C(=O)N[C@@H](CCC(=O)O)C(=O)N[C@H](C(=O)NCC(=O)N[C@@H](CO)C(=O)N[C@@H](CCCN)C(=O)N[C@H](C(=O)N1C[C@H](O)C[C@H]1C(N)=O)[C@@H](C)O)C(C)C)[C@@H](C)O)N(C)C(=O)[C@H](C)NC(=O)CN(C)C(=O)[C@H](Cc1ccccc1)NC(=O)[C@H](CO)NC(=O)[C@H](CO)NC(=O)[C@H](CCCNC(=N)N)NC(=O)[C@@H](NC(=O)[C@H](CC(C)C)NC(=O)[C@H](Cc1ccccc1)NC(=O)[C@H](Cc1c[nH]cn1)NC(=O)[C@H](C)NC(=O)[C@H](CC(C)C)NC(=O)[C@H](CCCNC(=N)N)NC(=O)[C@H](CCC(=O)O)NC(=O)[C@@H](NC(=O)[C@H](C)NC(=O)[C@@H]1CSSC[C@H](NC(=O)[C@H](CCCNC(=N)N)NC(=O)CC[C@H](NC(=O)CCCCCCCCCCCCCCCCCCC(=O)O)C(=O)O)C(=O)NCC(=O)N[C@@H]([C@@H](C)O)C(=O)N[C@@H](C)C(=O)N[C@@H]([C@@H](C)O)C(=O)N1)[C@@H](C)O)[C@@H](C)O
B4: [19CD]-isoGlu-R-C( )-GTAT-C( )-ATERLAHFLTRSSF-Gly(Me)-A-Ile(Me)-LSSTEVGS-Aad-T-Hyp-NH2 (Compd. 12) (peptide)
peptide: {C20 diacid}-[γGlu]RCGTATCATERLAHFLTRSSF[Sar]A[NMeI]LSSTEVGS[Aad]T[Hyp]-NH2
modifications: disulfide 3-8
SMILES: CC[C@H](C)[C@@H](C(=O)N[C@@H](CC(C)C)C(=O)N[C@@H](CO)C(=O)N[C@@H](CO)C(=O)N[C@H](C(=O)N[C@@H](CCC(=O)O)C(=O)N[C@H](C(=O)NCC(=O)N[C@@H](CO)C(=O)N[C@@H](CCCC(=O)O)C(=O)N[C@H](C(=O)N1C[C@H](O)C[C@H]1C(N)=O)[C@@H](C)O)C(C)C)[C@@H](C)O)N(C)C(=O)[C@H](C)NC(=O)CN(C)C(=O)[C@H](Cc1ccccc1)NC(=O)[C@H](CO)NC(=O)[C@H](CO)NC(=O)[C@H](CCCNC(=N)N)NC(=O)[C@@H](NC(=O)[C@H](CC(C)C)NC(=O)[C@H](Cc1ccccc1)NC(=O)[C@H](Cc1c[nH]cn1)NC(=O)[C@H](C)NC(=O)[C@H](CC(C)C)NC(=O)[C@H](CCCNC(=N)N)NC(=O)[C@H](CCC(=O)O)NC(=O)[C@@H](NC(=O)[C@H](C)NC(=O)[C@@H]1CSSC[C@H](NC(=O)[C@H](CCCNC(=N)N)NC(=O)CC[C@H](NC(=O)CCCCCCCCCCCCCCCCCCC(=O)O)C(=O)O)C(=O)NCC(=O)N[C@@H]([C@@H](C)O)C(=O)N[C@@H](C)C(=O)N[C@@H]([C@@H](C)O)C(=O)N1)[C@@H](C)O)[C@@H](C)O
B5: [19CD]-isoGlu-R-C( )-NTAT-C( )-ATQRLADFLHRSSF-Gly(Me)-A-Ile(Me)-LSSTEVGSETP-NH2 (Compd. 1) (peptide)
peptide: {C20 diacid-γGlu}-RCNTATCATQRLADFLHRSSF[Sar]A[NMeI]LSSTEVGSETP-NH2
modifications: disulfide 2-7
SMILES: CC[C@H](C)[C@@H](C(=O)N[C@@H](CC(C)C)C(=O)N[C@@H](CO)C(=O)N[C@@H](CO)C(=O)N[C@H](C(=O)N[C@@H](CCC(=O)O)C(=O)N[C@H](C(=O)NCC(=O)N[C@@H](CO)C(=O)N[C@@H](CCC(=O)O)C(=O)N[C@H](C(=O)N1CCC[C@H]1C(N)=O)[C@@H](C)O)C(C)C)[C@@H](C)O)N(C)C(=O)[C@H](C)NC(=O)CN(C)C(=O)[C@H](Cc1ccccc1)NC(=O)[C@H](CO)NC(=O)[C@H](CO)NC(=O)[C@H](CCCNC(=N)N)NC(=O)[C@H](Cc1c[nH]cn1)NC(=O)[C@H](CC(C)C)NC(=O)[C@H](Cc1ccccc1)NC(=O)[C@H](CC(=O)O)NC(=O)[C@H](C)NC(=O)[C@H](CC(C)C)NC(=O)[C@H](CCCNC(=N)N)NC(=O)[C@H](CCC(N)=O)NC(=O)[C@@H](NC(=O)[C@H](C)NC(=O)[C@@H]1CSSC[C@H](NC(=O)[C@H](CCCNC(=N)N)NC(=O)CC[C@H](NC(=O)CCCCCCCCCCCCCCCCCCC(=O)O)C(=O)O)C(=O)N[C@@H](CC(N)=O)C(=O)N[C@@H]([C@@H](C)O)C(=O)N[C@@H](C)C(=O)N[C@@H]([C@@H](C)O)C(=O)N1)[C@@H](C)O
B6: [19CD]-isoGlu-R-C( )-GTAT-C( )-ATERLAHFLTRSSF-Gly(Me)-A-Ile(Me)-LSSTEVGSFT-Hyp-NH2 (Compd. 10) (peptide)
peptide: {C20 diacid}-[γGlu]RCGTATCATERLAHFLTRSSF[Sar]A[NMeI]LSSTEVGSFT[Hyp]-NH2
modifications: disulfide 3-8
SMILES: CC[C@H](C)[C@@H](C(=O)N[C@@H](CC(C)C)C(=O)N[C@@H](CO)C(=O)N[C@@H](CO)C(=O)N[C@H](C(=O)N[C@@H](CCC(=O)O)C(=O)N[C@H](C(=O)NCC(=O)N[C@@H](CO)C(=O)N[C@@H](Cc1ccccc1)C(=O)N[C@H](C(=O)N1C[C@H](O)C[C@H]1C(N)=O)[C@@H](C)O)C(C)C)[C@@H](C)O)N(C)C(=O)[C@H](C)NC(=O)CN(C)C(=O)[C@H](Cc1ccccc1)NC(=O)[C@H](CO)NC(=O)[C@H](CO)NC(=O)[C@H](CCCNC(=N)N)NC(=O)[C@@H](NC(=O)[C@H](CC(C)C)NC(=O)[C@H](Cc1ccccc1)NC(=O)[C@H](Cc1c[nH]cn1)NC(=O)[C@H](C)NC(=O)[C@H](CC(C)C)NC(=O)[C@H](CCCNC(=N)N)NC(=O)[C@H](CCC(=O)O)NC(=O)[C@@H](NC(=O)[C@H](C)NC(=O)[C@@H]1CSSC[C@H](NC(=O)[C@H](CCCNC(=N)N)NC(=O)CC[C@H](NC(=O)CCCCCCCCCCCCCCCCCCC(=O)O)C(=O)O)C(=O)NCC(=O)N[C@@H]([C@@H](C)O)C(=O)N[C@@H](C)C(=O)N[C@@H]([C@@H](C)O)C(=O)N1)[C@@H](C)O)[C@@H](C)O
B7: [19CD]-isoGlu-R-C( )-NTAT-C( )-ATQRLAHFLHRF-Gly(Me)-A-Ile(Me)-LSSTEVGSETP-NH2 (Compd. 14) (peptide)
peptide: {C20 diacid-γGlu}-RCNTATCATQRLAHFLHRF[Sar]A[NMeI]LSSTEVGSETP-NH2
modifications: disulfide 2-7
SMILES: CC[C@H](C)[C@@H](C(=O)N[C@@H](CC(C)C)C(=O)N[C@@H](CO)C(=O)N[C@@H](CO)C(=O)N[C@H](C(=O)N[C@@H](CCC(=O)O)C(=O)N[C@H](C(=O)NCC(=O)N[C@@H](CO)C(=O)N[C@@H](CCC(=O)O)C(=O)N[C@H](C(=O)N1CCC[C@H]1C(N)=O)[C@@H](C)O)C(C)C)[C@@H](C)O)N(C)C(=O)[C@H](C)NC(=O)CN(C)C(=O)[C@H](Cc1ccccc1)NC(=O)[C@H](CCCNC(=N)N)NC(=O)[C@H](Cc1c[nH]cn1)NC(=O)[C@H](CC(C)C)NC(=O)[C@H](Cc1ccccc1)NC(=O)[C@H](Cc1c[nH]cn1)NC(=O)[C@H](C)NC(=O)[C@H](CC(C)C)NC(=O)[C@H](CCCNC(=N)N)NC(=O)[C@H](CCC(N)=O)NC(=O)[C@@H](NC(=O)[C@H](C)NC(=O)[C@@H]1CSSC[C@H](NC(=O)[C@H](CCCNC(=N)N)NC(=O)CC[C@H](NC(=O)CCCCCCCCCCCCCCCCCCC(=O)O)C(=O)O)C(=O)N[C@@H](CC(N)=O)C(=O)N[C@@H]([C@@H](C)O)C(=O)N[C@@H](C)C(=O)N[C@@H]([C@@H](C)O)C(=O)N1)[C@@H](C)O

Target: T1, human amylin receptor 3 (hAMYR3), hCTR2 co-expressed with human receptor activity modifying protein 3 (hRAMP3) (human, UniProt P30988 25-474; O60896 24-148)
T1 sequence (looked up) 1: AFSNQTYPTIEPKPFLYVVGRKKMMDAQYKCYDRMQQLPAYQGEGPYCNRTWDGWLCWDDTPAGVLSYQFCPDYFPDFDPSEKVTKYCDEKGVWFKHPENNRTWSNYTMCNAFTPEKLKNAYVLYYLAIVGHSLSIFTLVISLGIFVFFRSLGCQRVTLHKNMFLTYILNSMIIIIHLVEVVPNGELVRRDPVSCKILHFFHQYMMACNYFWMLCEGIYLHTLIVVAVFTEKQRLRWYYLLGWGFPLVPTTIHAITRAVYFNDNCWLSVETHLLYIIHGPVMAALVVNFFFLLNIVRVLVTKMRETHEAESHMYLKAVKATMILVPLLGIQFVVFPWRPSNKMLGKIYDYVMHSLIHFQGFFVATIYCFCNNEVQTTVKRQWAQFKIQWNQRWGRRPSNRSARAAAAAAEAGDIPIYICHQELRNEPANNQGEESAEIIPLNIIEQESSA
T1 sequence (looked up) 2: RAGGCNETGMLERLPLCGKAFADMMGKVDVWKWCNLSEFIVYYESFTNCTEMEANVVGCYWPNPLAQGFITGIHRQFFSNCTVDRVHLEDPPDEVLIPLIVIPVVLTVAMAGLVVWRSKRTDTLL
Assay: cell-based or functional assay

Binder	hAMYR3 EC50 (nM); cAMP induction [nM]
B1	0.28
B2	0.38
B3	0.2
B4	0.25
B5	0.23
B6	0.35
B7	0.26

Source: US20160272693A1 (ZEALAND PHARMA A S, published 2016)
